From the supplement of paper PMC10567573
± gives the standard deviation.

Experiment: protein stability index of a GFP-peptide fusion (GPS, HEK-293T) (PSI 1-6); higher = more stable
Conditions: c terminus: a fixed tail appended
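Further: 24-mer peptide tiles fused after GFP, lentivirally expressed, FACS-sorted into six equal bins by GFP/DsRed ratio, decoded by Illumina sequencing, PSI is the read-weighted mean bin number.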

Sequence | protein stability index (treatment: DMSO) | protein stability index (treatment: MLN4924 1 uM, 8 h)
VTHTEISPEQQFDRSVQRLLATRI [TMEM175] | 3.2 ± 0.28 | 3.34 ± 0.25
LLRAKIEVEKLKAIRLRHDLPEYN [RAD54B] | 2.69 ± 0.43 | 2.75 ± 0.49
CLGSLASKLSRKYVKAKKSIDKDE [FAN1] | 2.7 ± 0.16 | 2.94 ± 0.4
KRSWEEHVTHWMGQPFNSDDRNTA [DLC1] | 3.12 ± 0.47 | 3.52 ± 0.52
LLVYDITNRWSFDGIDRWIKEIDE [RAB40C] | 2.05 ± 0.22 | 2.18 ± 0.45
PPLREIILGPSSAYTQTQFHNLRN [NFE2L1] | 2.47 ± 0.15 | 2.65 ± 0.4
HPGFKDNVYRKRRKYFADLAMNYK [TPH1] | 2.61 ± 0.23 | 3.01 ± 0.48
EDSVSRLEKEIEVLERGDSAPATA [PALM] | 5.49 ± 0.23 | 5.47 ± 0.18
GNLGSLEKSVTKDAEGLAARDVQK [INTS4] | 5.46 ± 0.089 | 5.42 ± 0.12
GILTFLAVLGRYVPGLLLSYLMLV [RETREG3] | 3.42 ± 0.28 | 2.95 ± 0.72
KLEERFMTLAANHELMLRFKDEYK [CCDC89] | 2.99 ± 0.28 | 2.99 ± 0.43
RDHSVRVLISNHVTPFDHNIVNLL [AUP1] | 2.1 ± 0.16 | 2.12 ± 0.31
PEGSQDRNTSWGVVQEPPGRASRF [TLE6] | 4.83 ± 0.23 | 4.57 ± 0.14
PRTNQWSPVVAMTSRRSGVGLAVV [KLHL20] | 2.47 ± 0.51 | 2.47 ± 0.33
QYSGMLDCARRILAREGVAAFYKG [SLC25A25] | 2.38 ± 0.34 | 2.23 ± 0.055
GIPNAIISVEGINHDIRTANDGDY [CPXM2] | 4.55 ± 0.2 | 4.71 ± 0.16
ETAAGKGKGEARARLKRSQSFGVA [SMTNL2] | 4.39 ± 0.18 | 4.71 ± 0.12
RHRLRWHSFQSSHRPSLNSVSLQI [DLC1] | 2.41 ± 0.1 | 2.58 ± 0.097
NEFLEAFRLVEKSCPEGDASECPQ [PPEF2] | 5 ± 0.75 | 5.17 ± 0.32
GHQPGTGPGDGPPEIAQNFSAPDP [SMTNL2] | 5.23 ± 0.098 | 5.46 ± 0.15
ELDDPGQPVSLRRRKREVLVEDMV [ZNF24] | 4.66 ± 0.12 | 4.68 ± 0.17

Sequence | protein stability index (treatment: DMSO) | protein stability index (treatment: MLN4924 1 uM, 8 h)
IVGWRCRVGQWVRMENVTVLGEDV [GMPPB] | 2.39 ± 0.61 | 2.15 ± 0.18
QEWSFLPSITRKRRYVASVSLHDR [KLHL12] | 2.41 ± 0.11 | 2.51 ± 0.33
KDVRRHLVVHTGCKDFLCQFCAQR [PLAGL1] | 3.44 ± 0.08 | 3.55 ± 0.21
RFLLKETLNQLQSLQNSLECAMET [NECAB1] | 2.29 ± 0.4 | 2.31 ± 0.41
IVMCVQIKCFHEIITIGYNVYHSY [CDS2] | 3.32 ± 0.42 | 3.36 ± 0.66
QGHPQTGCECEDGPDGQEMDPPNP [GAGE1] | 5.39 ± 0.33 | 5.67 ± 0.14
TGELVGPFVSAMPTPMPHNKGTRF [ZBED2] | 3.64 ± 0.11 | 3.79 ± 0.23
DLVERALYSMECAFHPLFSLTSGA [TCF25] | 3.09 ± 1.3 | 2.84 ± 0.93
GKAVVSHSKGHKSSRQEKRPLCAQ [ELOA2] | 4.61 ± 0.29 | 4.64 ± 0.44
LIGDTLLVAPVLEPGKQERDVYLP [MYORG] | 3.23 ± 0.12 | 3.03 ± 0.22
SVRGYMMSKQRERQLRRRALHPER [RETREG3] | 3.43 ± 0.047 | 3.73 ± 0.31
KNSMENGRPPDPADWAVMDVVNYF [SAMD13] | 3.3 ± 0.26 | 3.28 ± 0.2
AQRRRMDEISDHAKVLTLSDDLER [EIF5] | 4.98 ± 0.26 | 5.04 ± 0.22
VAKLESECLKRQGQREPGSLSRNN [FBXO34] | 4.77 ± 0.098 | 4.75 ± 0.35
VKEDDKLIFHRHPVAQSTDAIRGK [SPSB1] | 4.56 ± 0.25 | 4.69 ± 0.25
VRLDRVRGGRQKYKRRIDAENSPY [ESRRG] | 3.81 ± 0.25 | 3.75 ± 0.052
LPSRRDVYLSPRDDGYSTKDSYSS [RBMX] | 4.11 ± 0.13 | 3.99 ± 0.42
AAHPPLPLLPPAMGTEPAPSAPEA [TBX6] | 5.45 ± 0.24 | 5.52 ± 0.21
CYVSRRLSQLSSHDPLWRRHCKKY [FBXO3] | 2.32 ± 0.12 | 2.4 ± 0.23
GGKGHHLPSENLGKEPLDPDPSHS [TOR1AIP2] | 5.456 ± 0.051 | 5.15 ± 0.14
VGRLKRERSMSENAVRQNGQLVRN [MFF] | 5 ± 0.16 | 4.94 ± 0.078

Sequence | protein stability index (treatment: DMSO) | protein stability index (treatment: MLN4924 1 uM, 8 h)
NPLICPVCTKYNLRITSGVVVCQC [RPAIN] | 3.91 ± 0.32 | 4.16 ± 0.25
LRNCKTYQARKPLWFYNTSLKFFL [RHOBTB3] | 2.68 ± 0.55 | 2.84 ± 0.87
PQTVGVGRARFTTYEVRMRTNLPI [SNX12] | 2.61 ± 0.22 | 2.6 ± 0.34
KNSTMVNSEDIFLLLCLKVDNHFN [TRIM43] | 2.98 ± 0.57 | 2.84 ± 0.51
SPKELKRRNSSSSMSSRLSIYDNV [DLC1] | 3.92 ± 0.32 | 3.94 ± 0.39
YFISTVKRSWTSAQNACSEHGATL [CD69] | 2.09 ± 0.49 | 2.07 ± 0.3
LTPTYLNQEDAIHFHRTLKEACDQ [CPOX] | 4.11 ± 0.25 | 4.35 ± 0.29
RGYWGDIATGPFVAFGIEADDESL [DNAAF3] | 3.65 ± 0.22 | 3.65 ± 0.43
TLYRPEEGYCQAQAPIAAVLLMHM [TBC1D10A] | 2.52 ± 0.42 | 2.43 ± 0.45
FQKGQVTRDGFKLVMASLYHIYVA [HMOX1] | 2.83 ± 0.49 | 3.12 ± 0.97
AGSVVAAVQGLNLRSPNNFLSYYR [CCND1] | 2.58 ± 0.2 | 2.61 ± 0.32
LMCGGIAFWSLVTLGSSFIPGEHF [SPNS1] | 3.21 ± 0.64 | 3.18 ± 0.21
SEADSEAGELRKPTQEEWRQVVDI [PPEF2] | 5.45 ± 0.15 | 5.46 ± 0.34
FHNLVSLNLNYNCISDELLENLCE [FBXO39] | 2.6 ± 0.18 | 2.66 ± 0.3
MTKAGSKGGNLRDKLDGNELDLSL [LRRC59] | 4.63 ± 0.15 | 4.63 ± 0.081
WGVCEPQREEVEERMWAAIQSWDI [ZER1] | 3.35 ± 0.22 | 3.56 ± 0.3
GPVQVVLVQKDQHSFELDEKALAS [ATL3] | 3.65 ± 0.18 | 4.06 ± 0.2
VEGFRITLVDESDLYNWEVAIFGP [UBE2R2] | 2.84 ± 0.79 | 2.52 ± 0.68
AHNSNWYITFQSDTDAQQAFILKR [LARP4] | 2.38 ± 0.25 | 2.4 ± 0.55
